According to article PMC6117287:

B1: LaIHA (Roseibium aggregatum IAM 12614) (protein)
chain: MSSLNQLVSGLASGAVRIVDLTHTLDPDFPVIVLPPEFGQCARFRMEEISAYDHRGPAWKWHNISMSEHTGTHFDAPSHWISGKDVPNGSVDEIPAEAFVGPVVVIDCSKGAAENDDFELTPEIIAGWESEHGRIPEDAWVLMRTDWSKRRGADYLNMRADGPHSPGPTPEAIRFLIEERNIRGFGTETVGTDAGQGAHYVPPYPAHYLLHGAGKYGLQCLANLDQLPATGAVLIAAPLKIKNGTGSPLRVLAMVTE

What was measured:
[1] = biological target: Isatin hydrolase A from Labrenzia aggregata (Labrenzia aggregata IAM12614); experiment: crystal structure; LaIHA at 15-20 mg/mL with 1 mM MnCl2, crystallised at 22 °C; structures with benzyl benzoate (1.50 Å) and isatinate (1.79 Å); dimer in the asymmetric unit
purified protein = substrate: O=C1Nc2ccccc2C1=O; experiment: purified protein; type: biochemical, Roseibium aggregatum; conditions: Mn2+ dependent enzyme; one-site Michaelis-Menten fit

Row | Molecule | stoichiometry N [1] | Km (purified protein) [µM]
1 | Isatin hydrolase A from Labrenzia aggregata (enzyme) | 2 | –
2 | B1 | – | 16
